This data set deals with prostate-specific antigen (PSA) (UniProt P07288 25-261). The data set is described as follows: SPR; AS2 3-50 nM, 2 mM MgCl2; SPR (Biacore CM5): PBS pH 7.4, 2 mM MgCl2 (PBSM), 25 °C, 15 µl/min, blank flow cell reference. The note with it: protein: commercial.
Sequence of prostate-specific antigen (PSA) (P07288 25-261): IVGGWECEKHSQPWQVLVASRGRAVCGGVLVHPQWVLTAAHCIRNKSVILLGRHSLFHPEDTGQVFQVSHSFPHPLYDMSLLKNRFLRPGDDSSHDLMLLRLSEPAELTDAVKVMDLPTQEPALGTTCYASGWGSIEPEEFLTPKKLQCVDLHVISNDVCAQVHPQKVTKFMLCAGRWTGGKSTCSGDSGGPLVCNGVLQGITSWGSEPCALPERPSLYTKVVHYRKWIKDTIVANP

B1: AS2 (ssDNA)
DNA: GGGCGGGGCGGACGAGACAGTAAGGGCTGTGGGTGTGGTG
As a reminder, the Kd is the equilibrium constant for the complex coming apart. B1: the Kd was 700 pM.

The values above are taken from article PMC4897735, “Acousto-microfluidics for screening of ssDNA aptamer”.
